Laboratory results taken from patent US7244707.

Target: cation-independent mannose-6-phosphate (CIM6P) receptor, human (human) (UniProt P11717)
Assay: cell-based or functional assay

Sequence of UniProt P11717 (P11717 41-2491): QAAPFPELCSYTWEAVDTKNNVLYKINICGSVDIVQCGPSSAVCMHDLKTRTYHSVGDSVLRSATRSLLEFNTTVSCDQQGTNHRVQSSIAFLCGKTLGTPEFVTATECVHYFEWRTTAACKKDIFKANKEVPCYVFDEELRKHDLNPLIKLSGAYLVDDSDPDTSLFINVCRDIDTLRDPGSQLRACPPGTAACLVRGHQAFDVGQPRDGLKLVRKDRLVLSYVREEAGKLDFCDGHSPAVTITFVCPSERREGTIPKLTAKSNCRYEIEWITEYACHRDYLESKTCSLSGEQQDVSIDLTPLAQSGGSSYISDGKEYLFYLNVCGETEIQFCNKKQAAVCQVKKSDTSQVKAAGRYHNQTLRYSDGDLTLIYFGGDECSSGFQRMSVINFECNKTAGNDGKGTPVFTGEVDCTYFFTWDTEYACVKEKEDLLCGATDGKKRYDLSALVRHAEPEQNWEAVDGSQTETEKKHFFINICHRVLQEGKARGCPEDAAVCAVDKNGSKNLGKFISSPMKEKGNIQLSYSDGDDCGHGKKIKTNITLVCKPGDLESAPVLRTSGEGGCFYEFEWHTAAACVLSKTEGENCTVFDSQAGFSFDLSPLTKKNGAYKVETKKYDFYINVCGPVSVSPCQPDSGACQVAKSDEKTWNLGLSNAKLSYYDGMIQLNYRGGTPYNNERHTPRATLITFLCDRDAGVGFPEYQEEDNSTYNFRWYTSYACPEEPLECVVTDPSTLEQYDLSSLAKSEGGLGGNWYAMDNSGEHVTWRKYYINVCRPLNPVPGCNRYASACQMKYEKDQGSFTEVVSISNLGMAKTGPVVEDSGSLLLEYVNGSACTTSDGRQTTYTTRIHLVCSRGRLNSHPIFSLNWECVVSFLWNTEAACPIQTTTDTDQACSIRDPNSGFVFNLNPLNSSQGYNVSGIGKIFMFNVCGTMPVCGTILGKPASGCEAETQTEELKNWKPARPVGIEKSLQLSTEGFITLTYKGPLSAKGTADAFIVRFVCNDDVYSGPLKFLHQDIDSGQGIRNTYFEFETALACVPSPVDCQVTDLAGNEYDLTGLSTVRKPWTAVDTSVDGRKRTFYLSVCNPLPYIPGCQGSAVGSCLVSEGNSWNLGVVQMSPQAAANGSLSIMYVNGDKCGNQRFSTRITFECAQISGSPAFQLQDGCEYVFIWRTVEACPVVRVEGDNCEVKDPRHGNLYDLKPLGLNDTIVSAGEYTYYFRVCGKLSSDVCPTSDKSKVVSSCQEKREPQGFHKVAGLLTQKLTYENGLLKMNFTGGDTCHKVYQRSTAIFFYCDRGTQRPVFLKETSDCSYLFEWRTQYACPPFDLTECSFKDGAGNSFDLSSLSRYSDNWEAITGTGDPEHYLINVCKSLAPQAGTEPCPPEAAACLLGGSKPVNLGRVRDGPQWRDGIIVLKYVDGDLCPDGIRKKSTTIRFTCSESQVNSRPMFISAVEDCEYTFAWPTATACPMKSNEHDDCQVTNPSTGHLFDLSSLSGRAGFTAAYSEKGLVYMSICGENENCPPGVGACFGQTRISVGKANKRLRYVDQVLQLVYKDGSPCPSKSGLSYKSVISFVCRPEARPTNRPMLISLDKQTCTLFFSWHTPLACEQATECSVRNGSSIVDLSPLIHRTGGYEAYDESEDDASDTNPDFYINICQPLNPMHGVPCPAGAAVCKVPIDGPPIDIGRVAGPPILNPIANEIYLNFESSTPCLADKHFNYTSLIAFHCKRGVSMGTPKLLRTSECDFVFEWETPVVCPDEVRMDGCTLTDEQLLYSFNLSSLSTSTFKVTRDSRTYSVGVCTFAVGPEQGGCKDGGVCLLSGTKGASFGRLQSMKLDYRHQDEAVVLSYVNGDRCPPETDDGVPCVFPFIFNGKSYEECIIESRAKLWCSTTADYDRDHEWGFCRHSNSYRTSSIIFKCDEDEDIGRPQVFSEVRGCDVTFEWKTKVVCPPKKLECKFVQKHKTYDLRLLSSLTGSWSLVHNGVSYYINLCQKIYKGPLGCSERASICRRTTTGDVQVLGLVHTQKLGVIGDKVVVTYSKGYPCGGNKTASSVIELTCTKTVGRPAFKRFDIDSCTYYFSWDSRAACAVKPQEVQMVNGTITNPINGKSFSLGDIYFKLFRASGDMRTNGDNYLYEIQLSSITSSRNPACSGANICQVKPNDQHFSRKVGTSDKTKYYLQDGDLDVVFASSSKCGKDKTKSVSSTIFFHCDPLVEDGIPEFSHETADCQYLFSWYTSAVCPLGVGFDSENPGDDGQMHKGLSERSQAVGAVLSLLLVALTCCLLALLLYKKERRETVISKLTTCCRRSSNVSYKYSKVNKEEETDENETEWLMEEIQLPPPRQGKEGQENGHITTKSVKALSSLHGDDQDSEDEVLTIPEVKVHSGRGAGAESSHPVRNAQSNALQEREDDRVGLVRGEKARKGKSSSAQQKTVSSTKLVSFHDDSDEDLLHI

Active TGF -1 as % Control (TF1 monocytes, TGF-1 ELISA), 25 nmol/L Leu^27-IGF-II: 12.7 % Control
Substance: Leu^27IGF-II (receptor grade) (from UniProt P01344 25-91) (ligand)
